Assay [1] addresses T1, AF9 ANC1 Homology Domain (AHD), residues 490-568 (UniProt P42568 490-568).
T1 sequence (looked up): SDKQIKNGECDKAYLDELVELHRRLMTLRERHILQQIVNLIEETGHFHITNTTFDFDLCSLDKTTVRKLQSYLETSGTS
Briefly: NMR titration.

Assay [2] concerns the target T2, AF4 peptide phosphorylated at T766.
T2 chain: LMVKI[pT]LDLLSRIP
Briefly: fluorescence polarisation.

For assay [3], the target named is BCoR peptide of the fluorescence anisotropy experiments. The experiment in a line: fluorescence polarisation.
The target of assay [4] is AF4 peptide of the fluorescence anisotropy experiments. The experiment in a line: fluorescence polarisation.

Square brackets hold non-standard residues; d marks the D form. Ends that are not written are not given here. pT = C[C@@H](OP(=O)(O)O)[C@H](N)C(=O)O

With LMVKITLDLLSRIP (peptide, UniProt P51825 761-774, looked up) [AF4 peptide, residues 761-774 (AF9 interaction motif of AF4)], the binding result in assay [1] is “binds”.

B1: MBP-AF9 (mouse AF9 residues 475-568 fused to the Maltose Binding Protein) (domain or fragment, UniProt A2AM29 475-568, looked up)
chain: NNNQILEVKSPIKQSKSDKQIKNGECDKAYLDELVELHRRLMTLRERHILQQIVNLIEETGHFHITNTTFDFDLCSLDKTTVRKLQSYLETSGT
The term Kd denotes a measure of binding affinity in units of concentration. Read a high Kd as a looser complex. With B1, the “fold reduction of affinity against the unphosphorylated AF4 peptide” value in assay [2] is roughly 30 fold. In addition, the Kd in assay [3] worked out at 0.032 µM; in assay [4], 0.00017 µM.

(Values after article PMC3545106 (Structure (London, England : 1993), 2012).)
